Results taken from publication PMC5052650.

Target: ARTD2 N+WGR fragment (human)
Experiment: SAXS; proteins without DNA; measured without chromatography at three different concentrations; MW from Porod volume divided by 1.7

ARTD2 N+WGR fragment (domain or fragment), sequence (Q9UGN5 99-206): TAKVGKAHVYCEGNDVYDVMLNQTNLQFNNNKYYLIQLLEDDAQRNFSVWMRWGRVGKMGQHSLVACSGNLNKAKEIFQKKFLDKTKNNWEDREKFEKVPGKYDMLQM

- stoichiometry N: 2
Substance: ARTD2 N+WGR fragment (domain or fragment)
